This is an account of results in PMC2816676, “DNA Binding of Centromere Protein C (CENPC) Is Stabilized by Single-Stranded RNA”.

In series [1] the target is T1, CENPC full length (Zea mays) (UniProt Q9XHE1).
T1 sequence: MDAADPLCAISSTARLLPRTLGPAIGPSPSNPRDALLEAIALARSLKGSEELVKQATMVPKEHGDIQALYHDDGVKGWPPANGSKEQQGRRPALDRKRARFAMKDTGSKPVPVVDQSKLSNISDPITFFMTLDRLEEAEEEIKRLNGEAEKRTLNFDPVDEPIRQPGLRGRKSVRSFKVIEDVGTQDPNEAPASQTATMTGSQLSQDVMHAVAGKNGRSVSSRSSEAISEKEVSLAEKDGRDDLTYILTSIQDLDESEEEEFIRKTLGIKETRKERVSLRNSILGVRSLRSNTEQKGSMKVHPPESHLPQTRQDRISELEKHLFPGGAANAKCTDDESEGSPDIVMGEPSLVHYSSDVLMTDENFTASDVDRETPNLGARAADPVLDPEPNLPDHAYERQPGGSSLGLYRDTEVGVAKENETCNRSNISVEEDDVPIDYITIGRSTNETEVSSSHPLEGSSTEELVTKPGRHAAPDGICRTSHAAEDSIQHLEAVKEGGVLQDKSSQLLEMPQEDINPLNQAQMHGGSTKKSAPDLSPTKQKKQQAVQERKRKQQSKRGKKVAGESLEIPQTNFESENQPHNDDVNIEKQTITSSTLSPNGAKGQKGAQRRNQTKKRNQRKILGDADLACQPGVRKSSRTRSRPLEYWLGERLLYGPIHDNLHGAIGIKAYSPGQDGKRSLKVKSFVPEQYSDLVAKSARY
Nature of the series: EMSA. The settings on record: 10 mM Tris pH 7.5, 50 mM NaCl, 0.5 mM DTT, 0.5 mM EDTA, 1 mM MgCl2, 4% glycerol, 20 µl, on ice 20 min; 5% PAGE. For orientation: Mobility shift assays separate free from complexed probe on a gel.

Series [2] deals with HIV integrase DNA-binding domain (IntBD) (HIV, UniProt Q9WJL1 220-270). Nature of the series: EMSA; no RNA; 10 mM Tris pH 7.5, 50 mM NaCl, 0.5 mM DTT, 0.5 mM EDTA, 1 mM MgCl2, 4% glycerol, 20 µl, on ice 20 min; 5% PAGE. The conditions noted are these: chain copies: 2; blunt.
A further series concerns the target T2, CENPC Δexon 9-12 (Zea mays, UniProt Q9XHE1 1-701, del503-624).
T2 sequence: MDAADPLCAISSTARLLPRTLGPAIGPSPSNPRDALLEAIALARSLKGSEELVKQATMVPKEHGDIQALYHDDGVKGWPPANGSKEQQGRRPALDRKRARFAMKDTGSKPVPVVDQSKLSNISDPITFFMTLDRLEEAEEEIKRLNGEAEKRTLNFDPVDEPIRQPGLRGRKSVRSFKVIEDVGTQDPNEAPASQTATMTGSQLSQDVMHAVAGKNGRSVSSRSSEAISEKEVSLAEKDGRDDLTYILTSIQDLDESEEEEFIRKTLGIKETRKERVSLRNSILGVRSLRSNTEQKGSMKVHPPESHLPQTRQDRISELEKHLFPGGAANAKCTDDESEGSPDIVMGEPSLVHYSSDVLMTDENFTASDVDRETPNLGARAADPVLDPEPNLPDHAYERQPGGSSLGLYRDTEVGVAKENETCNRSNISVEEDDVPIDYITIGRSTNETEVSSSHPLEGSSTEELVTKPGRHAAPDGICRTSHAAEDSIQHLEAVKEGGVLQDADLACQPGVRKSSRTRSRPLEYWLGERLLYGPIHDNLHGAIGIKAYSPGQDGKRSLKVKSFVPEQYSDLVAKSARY
Nature of the series: EMSA; 10 mM Tris pH 7.5, 50 mM NaCl, 0.5 mM DTT, 0.5 mM EDTA, 1 mM MgCl2, 4% glycerol, 20 µl, on ice 20 min; 5% PAGE. The settings on record: protein: recombinant; tags: His (pET28a); blunt.

The next series concerns the target T3, CENPC exon 1-5.7 (Zea mays, UniProt Q9XHE1 1-399).
T3 sequence: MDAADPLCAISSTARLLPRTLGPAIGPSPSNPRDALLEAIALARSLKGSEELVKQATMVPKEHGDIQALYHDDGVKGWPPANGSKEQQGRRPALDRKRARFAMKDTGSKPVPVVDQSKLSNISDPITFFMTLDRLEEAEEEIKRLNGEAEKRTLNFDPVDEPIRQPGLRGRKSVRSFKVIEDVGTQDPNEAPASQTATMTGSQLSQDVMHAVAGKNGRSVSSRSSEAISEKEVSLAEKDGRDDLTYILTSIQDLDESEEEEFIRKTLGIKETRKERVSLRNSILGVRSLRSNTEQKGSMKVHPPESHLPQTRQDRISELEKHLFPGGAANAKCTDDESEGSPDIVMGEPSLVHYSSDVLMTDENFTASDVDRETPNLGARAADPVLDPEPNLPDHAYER
Described as above. The conditions noted are these: protein: recombinant; tags: His (pET28a); blunt.

Another series addresses T4, CENPC exon 1-8 (Zea mays, UniProt Q9XHE1 1-502).
T4 sequence: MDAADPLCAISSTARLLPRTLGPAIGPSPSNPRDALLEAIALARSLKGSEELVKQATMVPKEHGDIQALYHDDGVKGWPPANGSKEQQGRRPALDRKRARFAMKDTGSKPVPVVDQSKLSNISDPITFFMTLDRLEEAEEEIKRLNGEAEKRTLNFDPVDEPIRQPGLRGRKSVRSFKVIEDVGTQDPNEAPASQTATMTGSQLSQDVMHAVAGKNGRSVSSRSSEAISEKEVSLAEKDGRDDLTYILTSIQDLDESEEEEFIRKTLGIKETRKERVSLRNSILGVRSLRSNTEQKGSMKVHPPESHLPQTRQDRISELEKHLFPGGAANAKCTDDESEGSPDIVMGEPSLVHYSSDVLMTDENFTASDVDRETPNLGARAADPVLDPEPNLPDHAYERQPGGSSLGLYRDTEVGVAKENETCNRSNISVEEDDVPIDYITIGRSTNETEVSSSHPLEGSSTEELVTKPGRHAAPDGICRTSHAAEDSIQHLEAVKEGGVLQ
The description is as above. The settings on record: protein: recombinant; tags: His (pET28a); blunt.

For CentC 67 bp DSDNA, the binding signal in series [1] came to 85.3 % bound.
Still for that read-out and setting: as for CentC 156 bp DSDNA, the figure is 95.9 % bound.

B1: CentC 44 bp DSDNA (dsDNA)
DNA 1: AATGGGTGACGTGCGGCAACGAAATTGCGCGAAACCACCCCAAA
DNA 2: TTTGGGGTGGTTTCGCGCAATTTCGTTGCCGCACGTCACCCATT
As to B1, the binding result in series [2] is on record as “binds”; in the series with CENPC Δexon 9-12 it was “no binding”; with CENPC exon 1-5.7, “no binding”; with CENPC exon 1-8, “no binding”.
